# Assay results: patent publication US20250000946A1 (WUXI BIOLOGICS IRELAND, published 2025)
# T1: Human IL-2Rβ/γ (intermediate affinity IL-2 receptor) (human, UniProt P14784 27-551; P31785 23-369)
# T1 construct: whole, on cells; also called IL-2Rβ/γc; IL-2Rβ (CD122) and γ (CD132)
# T1 sequence (looked up) 1: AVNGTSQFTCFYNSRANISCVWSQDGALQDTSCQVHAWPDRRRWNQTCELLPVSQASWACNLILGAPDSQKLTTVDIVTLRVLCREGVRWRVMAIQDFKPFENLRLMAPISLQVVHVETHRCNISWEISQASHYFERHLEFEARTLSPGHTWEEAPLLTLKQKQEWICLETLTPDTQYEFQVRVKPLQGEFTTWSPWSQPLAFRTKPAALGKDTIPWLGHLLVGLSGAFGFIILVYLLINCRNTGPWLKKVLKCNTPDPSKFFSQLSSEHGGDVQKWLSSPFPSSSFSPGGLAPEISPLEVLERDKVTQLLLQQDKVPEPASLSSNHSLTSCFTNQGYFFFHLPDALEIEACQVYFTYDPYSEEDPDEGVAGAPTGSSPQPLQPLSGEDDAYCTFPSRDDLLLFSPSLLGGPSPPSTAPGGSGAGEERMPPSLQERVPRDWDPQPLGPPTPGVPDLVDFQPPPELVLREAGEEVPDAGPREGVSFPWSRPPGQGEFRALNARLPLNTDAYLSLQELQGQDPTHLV
# T1 sequence (looked up) 2: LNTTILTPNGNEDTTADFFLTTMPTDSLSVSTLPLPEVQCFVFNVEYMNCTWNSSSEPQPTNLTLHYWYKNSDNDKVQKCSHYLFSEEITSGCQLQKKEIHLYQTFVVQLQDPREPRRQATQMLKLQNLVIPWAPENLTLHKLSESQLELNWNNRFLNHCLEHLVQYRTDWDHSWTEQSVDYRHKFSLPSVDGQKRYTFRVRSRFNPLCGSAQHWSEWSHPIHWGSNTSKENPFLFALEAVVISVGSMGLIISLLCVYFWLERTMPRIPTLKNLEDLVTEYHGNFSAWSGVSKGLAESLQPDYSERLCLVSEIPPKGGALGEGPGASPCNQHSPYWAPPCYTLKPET
# T2: Human IL-2Rα/β/γ complex (high affinity IL-2 receptor) (human, UniProt P01589 22-272; P14784 27-551; P31785 23-369)
# T2 construct: whole, on cells
# T2 sequence (looked up) 1: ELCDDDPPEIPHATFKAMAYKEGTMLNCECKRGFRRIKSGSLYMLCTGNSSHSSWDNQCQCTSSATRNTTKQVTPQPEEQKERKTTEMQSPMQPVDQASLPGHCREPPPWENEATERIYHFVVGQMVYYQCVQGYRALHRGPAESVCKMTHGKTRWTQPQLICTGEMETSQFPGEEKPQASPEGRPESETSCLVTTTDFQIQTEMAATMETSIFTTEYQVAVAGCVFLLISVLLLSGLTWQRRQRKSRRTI
# T2 sequence (looked up) 2: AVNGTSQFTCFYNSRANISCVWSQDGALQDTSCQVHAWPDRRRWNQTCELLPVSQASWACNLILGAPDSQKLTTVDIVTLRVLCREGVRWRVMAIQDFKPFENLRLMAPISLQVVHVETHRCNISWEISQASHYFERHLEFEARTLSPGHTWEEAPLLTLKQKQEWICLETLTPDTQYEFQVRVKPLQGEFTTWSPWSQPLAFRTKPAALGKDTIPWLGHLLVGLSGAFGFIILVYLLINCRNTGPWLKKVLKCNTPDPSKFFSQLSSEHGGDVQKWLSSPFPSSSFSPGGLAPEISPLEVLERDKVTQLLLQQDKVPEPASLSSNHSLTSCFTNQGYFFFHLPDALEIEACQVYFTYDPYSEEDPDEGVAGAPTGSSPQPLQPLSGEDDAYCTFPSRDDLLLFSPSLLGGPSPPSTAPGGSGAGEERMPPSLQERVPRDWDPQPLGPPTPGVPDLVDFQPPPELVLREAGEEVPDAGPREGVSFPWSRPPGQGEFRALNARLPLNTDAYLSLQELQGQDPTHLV
# T2 sequence (looked up) 3: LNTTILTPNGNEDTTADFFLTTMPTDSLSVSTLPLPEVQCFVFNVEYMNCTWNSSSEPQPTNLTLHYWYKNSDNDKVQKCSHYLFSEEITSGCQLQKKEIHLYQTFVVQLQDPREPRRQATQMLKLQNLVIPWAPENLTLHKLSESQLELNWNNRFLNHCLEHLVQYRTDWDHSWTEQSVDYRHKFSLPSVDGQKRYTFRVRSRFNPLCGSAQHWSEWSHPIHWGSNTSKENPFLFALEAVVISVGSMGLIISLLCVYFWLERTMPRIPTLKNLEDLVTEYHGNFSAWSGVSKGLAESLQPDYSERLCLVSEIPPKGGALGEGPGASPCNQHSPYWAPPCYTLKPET
# Legend:
# [1] = molecular target: T1, Human IL-2Rβ/γ (intermediate affinity …); assay: FACS, HH cells; EC50 fold vs T2U0.E44-1
# Method: (§1) Human cutaneous T cell lymphoma HH cells, malignant non-Hodgkin's lymphoma NK92 cells and cutaneous T cell lymphoma MJ20 cells were used for binding assay. They both constitutively express IL-2Rβ (CD122) and […] (CD132), and NK92 and MJ20 also expresses IL-2Rα (CD25). HH, NK92 and MJ20 cells were cultured following ATCC guidance, then transferred to a 96-plate for binding analysis. Cells were incubated with IL-2/Fc fusion proteins at the indicated concentrations for 30 min at 4° C. to avoid internalization. Binding was detected by 2nd antibody of PE-anti-human Fc at 4° C. for another 30 min. The median fluorescence intensity (MFI) on HH and NK92 cells was measured using FACS.
# [2] = molecular target: T2, Human IL-2Rα/β/γ complex (high affinity …); assay: FACS, NK92 cells; EC50 fold vs T2U0.E44-1
# Method: as §1
# [3] = molecular target: T2, Human IL-2Rα/β/γ complex (high affinity …); assay: FACS, NK92 cells
# Method: as §1
# [4] = molecular target: T1, Human IL-2Rβ/γ (intermediate affinity …); assay: cell-based or functional assay
# [5] = molecular target: T2, Human IL-2Rα/β/γ complex (high affinity …); assay: cell-based or functional assay
# [6] = molecular target: T1, Human IL-2Rβ/γ (intermediate affinity …); assay: FACS, HH cells
# Method: as §1
Affinity reduction [1] [fold],Affinity reduction [2] [fold],EC50 [3] [nM],Potency in human CD8+ T EC50 [4] [nM],Potency reduction (CD8+ T) [4] [fold],Potency in human Treg EC50 [5] [nM],Potency reduction (Treg) [5] [fold],EC50 [6] [nM],Binder
1.62,2.63,14.5,18,1.89,4.62,179,50.1,"W3XX115-T2U0.E44-5.uIgG4V1 (Fc fusion, IL-2 with C-terminal 3 aa (TLT) deleted; E44 format, IgG4) APTSSSTKKTQLQLEHLLLDLQMILNGINNYKNPKLTRMLTFKFYMPKKATELKHLQCLEEELKPLEEVLNLAQSKNFHLRPRDLISNINVIVLELKGSETTFMCEYADETATIVEFLNRWITFCQSIISESKYGPPCPPCPAPEFLGGPSVFLFPPKPKDTLMISRTPEVTCVVVDVSQEDPEVQFNWYVDGVEVHNAKTKPREEQFNSTYRVVSVLTVLHQDWLNGKEYKCKVSNKGLPSSIEKTISKAKGQPREPQVYTLPPCQEEMTKNQVSLWCLVKGFYPSDIAVEWESNGQPENNYKTTPPVLDSDGSFFLYSRLTVDKSRWQEGNVFSCSVMHEALHNHYTQKSLSLSLG heavy: EIQLQQSGPELVKPGASVKVSCKASGYSFTDYNMYWVKQSHGESLEWIGYIDPYNGGTRYNQKFKGKATLTVDKSSSTAFMHLNSLTSEDSAVYYCARNGHWDGAWFAYWGQGTLVTVSAASTKGPSVFPLAPCSRSTSESTAALGCLVKDYFPEPVTVSWNSGALTSGVHTFPAVLQSSGLYSLSSVVTVPSSSLGTKTYTCNVDHKPSNTKVDKRVESKYGPPCPPCPAPEFLGGPSVFLFPPKPKDTLMISRTPEVTCVVVDVSQEDPEVQFNWYVDGVEVHNAKTKPREEQFNSTYRVVSVLTVLHQDWLNGKEYKCKVSNKGLPSSIEKTISKAKGQPREPQVCTLPPSQEEMTKNQVSLSCAVKGFYPSDIAVEWESNGQPENNYKTTPPVLDSDGSFFLVSRLTVDKSRWQEGNVFSCSVMHEALHNHYTQKSLSLSLG light: DIQMNQSPSSLSASLGDTITITCHASQNINVWLSWYQQKPGNIPKLLIYKASNLHTGVPSRFSGSRSGTGFTLTISSLQPEDIATYYCHQGQSYPFTFGSGTKLEIKRTVAAPSVFIFPPSDEQLKSGTASVVCLLNNFYPREAKVQWKVDNALQSGNSQESVTEQDSKDSTYSLSSTLTLSKADYEKHKVYACEVTHQGLSSPVTKSFNRGEC"
1.76,1.55,8.52,96.5,10.1,1.44,55.6,54.5,"W3XX115-T2U0.E44-9.uIgG4V1 (Fc fusion, IL-2 with C-terminal 7 aa (SIISTLT) deleted; E44 format, IgG4) APTSSSTKKTQLQLEHLLLDLQMILNGINNYKNPKLTRMLTFKFYMPKKATELKHLQCLEEELKPLEEVLNLAQSKNFHLRPRDLISNINVIVLELKGSETTFMCEYADETATIVEFLNRWITFCQESKYGPPCPPCPAPEFLGGPSVFLFPPKPKDTLMISRTPEVTCVVVDVSQEDPEVQFNWYVDGVEVHNAKTKPREEQFNSTYRVVSVLTVLHQDWLNGKEYKCKVSNKGLPSSIEKTISKAKGQPREPQVYTLPPCQEEMTKNQVSLWCLVKGFYPSDIAVEWESNGQPENNYKTTPPVLDSDGSFFLYSRLTVDKSRWQEGNVFSCSVMHEALHNHYTQKSLSLSLG heavy: EIQLQQSGPELVKPGASVKVSCKASGYSFTDYNMYWVKQSHGESLEWIGYIDPYNGGTRYNQKFKGKATLTVDKSSSTAFMHLNSLTSEDSAVYYCARNGHWDGAWFAYWGQGTLVTVSAASTKGPSVFPLAPCSRSTSESTAALGCLVKDYFPEPVTVSWNSGALTSGVHTFPAVLQSSGLYSLSSVVTVPSSSLGTKTYTCNVDHKPSNTKVDKRVESKYGPPCPPCPAPEFLGGPSVFLFPPKPKDTLMISRTPEVTCVVVDVSQEDPEVQFNWYVDGVEVHNAKTKPREEQFNSTYRVVSVLTVLHQDWLNGKEYKCKVSNKGLPSSIEKTISKAKGQPREPQVCTLPPSQEEMTKNQVSLSCAVKGFYPSDIAVEWESNGQPENNYKTTPPVLDSDGSFFLVSRLTVDKSRWQEGNVFSCSVMHEALHNHYTQKSLSLSLG light: DIQMNQSPSSLSASLGDTITITCHASQNINVWLSWYQQKPGNIPKLLIYKASNLHTGVPSRFSGSRSGTGFTLTISSLQPEDIATYYCHQGQSYPFTFGSGTKLEIKRTVAAPSVFIFPPSDEQLKSGTASVVCLLNNFYPREAKVQWKVDNALQSGNSQESVTEQDSKDSTYSLSSTLTLSKADYEKHKVYACEVTHQGLSSPVTKSFNRGEC"
